Target: Xenopus histone H3/H4 tetramer (Xenopus), P84233
Test: SEC-MALS
Settings: remark: other sources report otherwise

Binder | stoichiometry N
human Spt2 histone-binding domain 571–685 (hSpt2C), Q68D10 571-685 (domain or fragment) GPQRLPFPTGYKRQREYEEEDDDDDEYDSEMEDFIEDEGEPQEEISKHIREIFGYDRKKYKDESDYALRYMESSWKEQQKEEAKSLRLGMQEDLEEMRREEEEMQRRRAKKLKRR | 1
SUMO-tagged hSpt2C(571–685), Q68D10 571-685 (domain or fragment) GPQRLPFPTGYKRQREYEEEDDDDDEYDSEMEDFIEDEGEPQEEISKHIREIFGYDRKKYKDESDYALRYMESSWKEQQKEEAKSLRLGMQEDLEEMRREEEEMQRRRAKKLKRR | 1

Reference: publication PMC4495402
